Measurements published in patent publication US7183387 (Genentech, dated 2007).
Where a chain is given by its changes, count along the chain named. Names may count otherwise.

T1: human FcγRIIA-H131 α subunit extracellular domain-His6-GST fusion protein (human, UniProt P12318 34-217)
T1 construct: also called FcγRIIA-His131; not shown: glutathione S-transferase (GST)
T1 sequence: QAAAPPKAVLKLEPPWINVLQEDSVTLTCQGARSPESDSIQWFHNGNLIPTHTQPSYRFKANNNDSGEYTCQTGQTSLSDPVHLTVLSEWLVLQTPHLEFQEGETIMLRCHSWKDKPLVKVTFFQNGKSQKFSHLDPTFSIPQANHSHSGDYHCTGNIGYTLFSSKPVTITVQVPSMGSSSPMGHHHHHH

T2: human FcγRIIB α subunit extracellular domain-His6-GST fusion (human, UniProt P31994 43-217)
T2 construct: extracellular domain; also called CD32; not shown: glutathione S transferase (GST)
T2 sequence: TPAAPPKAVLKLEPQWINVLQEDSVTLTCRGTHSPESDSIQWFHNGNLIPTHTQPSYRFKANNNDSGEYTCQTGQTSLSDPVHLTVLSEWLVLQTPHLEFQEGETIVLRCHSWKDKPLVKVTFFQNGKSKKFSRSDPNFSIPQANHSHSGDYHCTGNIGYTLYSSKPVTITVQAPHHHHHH

T3: human FcγRIIA-Arg131 α subunit extracellular domain-His6-GST fusion (human, UniProt P12318 34-217)
T3 construct: extracellular domain; also called FcγRIIA-R131; not shown: glutathione S transferase (GST)
T3 sequence: T1 sequence with H134R

T4: human FcγRIIA-R131 α subunit extracellular domain-His6-GST fusion (human, UniProt P12318 34-217)
T4 construct: ECD-6His-GST fusion made in 293 cells; also called FcγRIIA-Arg131; not shown: glutathione S transferase (GST)
T4 sequence: T1 sequence with H134R

T5: human FcγRIIA-H131 α subunit extracellular domain-His6-GST fusion (human, UniProt P12318 34-217)
T5 construct: ECD-6His-GST fusion made in 293 cells; also called FcγRIIA-His131; not shown: glutathione S transferase (GST)
T5 sequence: T1 sequence

T6: human FcγRIIA-R131 α subunit extracellular domain-His6-GST fusion protein (human, UniProt P12318 34-217)
T6 construct: ECD-6His-GST fusion made in 293 cells, coated on the plate; also called FcγRIIA-Arg131; not shown: glutathione S-transferase (GST)
T6 sequence: T1 sequence with H134R

T7: human FcγRIIB α subunit extracellular domain-6His-GST fusion (human, UniProt P31994 43-217)
T7 construct: not shown: glutathione S-transferase (GST)
T7 sequence: T2 sequence

T8: human FcγRIIA-R131 α subunit extracellular domain-6His-GST fusion (human, UniProt P12318 34-217)
T8 construct: also called FcγRIIA-Arg131; not shown: glutathione S-transferase (GST)
T8 sequence: T1 sequence with H134R

B1: anti-IgE E27 IgG1 variant Ser267Ala (antibody)
heavy: not shown
light: DIQLTQSPSSLSASVGDRVTITCRASKPVDGEGDSYLNWYQQKPGKAPKLLIYAASYLESGVPSRFSGSGSGTDFTLTISSLQPEDFATYYCQQSHEDPYTFGQGTKVEIKRTVAAPSVFIFPPSDEQLKSGTASVVCLLNNFYPREAKVQWKVDNALQSGNSQESVTEQDSKDSTYSLSSTLTLSKADYEKHKVYACEVTHQGLSSPVTKSFNRGEC
notes: also called S267(280)A; S280A
B2: anti-IgE E27 IgG1 variant His268Ala (antibody)
heavy: not shown
light: B1 light
notes: also called H268(281)A; H281A
B3: anti-IgE E27 IgG1 variant Val305Ala (antibody)
heavy: not shown
light: B1 light
notes: also called V305(324)A; IG2 40
B4: anti-IgE E27 IgG1 variant Ser267Ala/His268Ala (antibody)
heavy: not shown
light: B1 light
notes: also called S267(280)A H268(281)A; IG2 96
B5: anti-IgE E27 IgG1 variant Asn315Ala (antibody)
heavy: not shown
light: B1 light
notes: also called IG2 45
B6: anti-IgE E27 IgG1 variant Thr307Ala (antibody)
heavy: not shown
light: B1 light
notes: also called T307(326)A; IG2 41
B7: anti-IgE E27 IgG1 variant Ser267Gly (antibody)
heavy: not shown
light: B1 light
notes: also called S267(280)G; IG2 189
B8: anti-IgE E27 IgG1 variant Lys317Ala (antibody)
heavy: not shown
light: B1 light
notes: also called K317(336)A; IG2 46
B9: anti-IgE E27 IgG1 Glu293Ala (antibody)
heavy: not shown
light: B1 light
B10: anti-IgE E27 IgG1 Tyr296Phe (antibody)
heavy: not shown
light: B1 light
B11: anti-IgE E27 IgG1 variant S267(280)A (antibody)
heavy: not shown
light: B1 light
notes: Fc variant of E27; also called IG2 15; G15
B12: anti-IgE E27 IgG1 variant T307(326)A (antibody)
heavy: not shown
light: B1 light
notes: Fc variant of E27; also called IG2 41; Thr307Ala
B13: anti-IgE E27 IgG1 variant V305(324)A (antibody)
heavy: not shown
light: B1 light
notes: Fc variant of E27; also called IG2 40; Val305Ala
B14: E27 IgG1 variant A339(359)T (antibody)
heavy: not shown
light: B1 light
notes: also called IG2 273
B15: E27 IgG1 variant K334(353)H (antibody)
heavy: not shown
light: B1 light
B16: E27 IgG1 variant K290(307)E (antibody)
heavy: not shown
light: B1 light
notes: also called IG2 77
B17: E27 IgG1 variant K290(307)R (antibody)
heavy: not shown
light: B1 light
notes: also called IG2 78

molecular target: T1, human FcγRIIA-H131 α subunit …; assay: ELISA; binding ratio on FcγRIIA-H131 divided by that on FcγRIIA-R131

| Binder | H131/R131 |
| --- | --- |
| B1 | 0.71 ratio (H131 value/R131 value) |
| B2 | 0.75 ratio (H131 value/R131 value) |
| B3 | 1.08 ratio (H131 value/R131 value) |
| B4 | 0.65 ratio (H131 value/R131 value) |
| B5 | 0.99 ratio (H131 value/R131 value) |
| B6 | 0.94 ratio (H131 value/R131 value) |
| B7 | 0.47 ratio (H131 value/R131 value) |
| B8 | 0.99 ratio (H131 value/R131 value) |

molecular target: T1, human FcγRIIA-H131 α subunit …; assay: ELISA, IgG:IgE hexamer on coated FcγRIIA-H131-GST

| Binder | ratio of binding of the variant to that of native IgG1 |
| --- | --- |
| B1 | 1.1 ratio (variant/native IgG1) |
| B2 | 0.97 ratio (variant/native IgG1) |
| B3 | 1.06 ratio (variant/native IgG1) |
| B4 | 1.02 ratio (variant/native IgG1) |
| B5 | 1.1 ratio (variant/native IgG1) |
| B6 | 1.18 ratio (variant/native IgG1) |
| B7 | 0.54 ratio (variant/native IgG1) |
| B8 | 1.08 ratio (variant/native IgG1) |

molecular target: T2, human FcγRIIB α subunit extracellular …; assay: hexamer ELISA

| Binder | ratio to native IgG1 |
| --- | --- |
| B9 | 1.07 ratio |
| B10 | 0.86 ratio |

molecular target: T9, human FcγRIIIA-Phe158 α subunit extracellular domain-His6-GST fusion (human, UniProt P08637 17-208); assay: hexamer ELISA
T9 construct: extracellular domain; also called FcγRIIIA-F158; CD16; not shown: glutathione S transferase (GST)
T9 sequence (P08637 other isoform, or with tags, fused parts or gaps): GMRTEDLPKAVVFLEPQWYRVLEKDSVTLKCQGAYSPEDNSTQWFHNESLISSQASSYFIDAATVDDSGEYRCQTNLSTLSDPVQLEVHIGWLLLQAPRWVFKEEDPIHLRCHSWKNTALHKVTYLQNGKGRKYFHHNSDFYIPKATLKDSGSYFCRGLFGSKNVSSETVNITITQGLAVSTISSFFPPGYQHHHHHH

| Binder | ratio to native IgG1 |
| --- | --- |
| B9 | 0.31 ratio |
| B10 | 0.55 ratio |

molecular target: T3, human FcγRIIA-Arg131 α subunit …; assay: hexamer ELISA

| Binder | ratio to native IgG1 |
| --- | --- |
| B9 | 1.08 ratio |
| B10 | 0.97 ratio |

molecular target: T9, human FcγRIIIA-Phe158 α subunit …; assay: hexamer ELISA; remark: another data set of the same source

| Binder | reduction in binding against native IgG1 |
| --- | --- |
| B9 | 70% |
| B10 | 50% |

molecular target: T4, human FcγRIIA-R131 α subunit …; assay: ELISA, IgG complex, receptor coated

| Binder | ratio of binding, variant/native IgG1 (mean) |
| --- | --- |
| B11 | 1.64 ratio |
| B12 | 1.19 ratio |
| B13 | 1.12 ratio |

molecular target: T10, human FcγRIIIA-F158 α subunit extracellular domain-His6-GST fusion (human, UniProt P08637 17-208); assay: ELISA, IgG complex, receptor coated
T10 construct: ECD-6His-GST fusion made in 293 cells; also called FcγRIIIA-Phe158; not shown: glutathione S transferase (GST)
T10 sequence (P08637 other isoform, or with tags, fused parts or gaps, form in doubt): as the sequence (P08637 other isoform, or with tags, fused parts or gaps) above

| Binder | ratio of binding, variant/native IgG1 (mean) |
| --- | --- |
| B11 | 1.14 ratio |
| B12 | 1.12 ratio |
| B13 | 0.84 ratio |

molecular target: T5, human FcγRIIA-H131 α subunit …; assay: ELISA, IgG complex, receptor coated

| Binder | ratio of binding, variant/native IgG1 (mean) |
| --- | --- |
| B11 | 1.05 ratio |
| B12 | 1.37 ratio |
| B13 | 1.04 ratio |

molecular target: T6, human FcγRIIA-R131 α subunit …; assay: ELISA, IgG:IgE hexamer on coated FcγRIIA-R131-GST; value carried over from Table 6, 7 or 8

| Binder | ratio of binding of the variant to that of native IgG1 |
| --- | --- |
| B1 | 1.52 ratio (variant/native IgG1) |
| B2 | 1.21 ratio (variant/native IgG1) |
| B3 | 1.12 ratio (variant/native IgG1) |
| B4 | 1.41 ratio (variant/native IgG1) |
| B5 | 1.15 ratio (variant/native IgG1) |
| B6 | 1.07 ratio (variant/native IgG1) |
| B7 | 1.18 ratio (variant/native IgG1) |
| B8 | 1.13 ratio (variant/native IgG1) |

molecular target: T11, human FcγRI (FcγRIA) α subunit extracellular domain-His6-GST fusion (human, UniProt P12314 16-292); assay: monomeric IgG; ELISA on receptor-GST and THP-1 cells, averaged
T11 construct: Reported FcγRI values are the average of the plate ELISA on this fusion and of a flow cytometry assay on THP-1 cells; also called GST-FcγRIA; not shown: glutathione S-transferase (GST)
T11 sequence (P12314 other isoform, or with tags, fused parts or gaps, form in doubt): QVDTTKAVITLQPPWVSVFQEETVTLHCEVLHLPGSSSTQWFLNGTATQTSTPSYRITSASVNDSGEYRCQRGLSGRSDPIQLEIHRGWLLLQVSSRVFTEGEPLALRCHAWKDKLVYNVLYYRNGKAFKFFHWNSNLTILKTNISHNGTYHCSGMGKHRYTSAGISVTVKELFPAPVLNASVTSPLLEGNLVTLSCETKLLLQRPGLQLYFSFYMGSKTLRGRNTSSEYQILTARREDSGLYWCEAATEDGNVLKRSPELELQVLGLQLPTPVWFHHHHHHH

| Binder | ratio to native IgG1 |
| --- | --- |
| B14 | 1.23 |
| B15 | 1.11 |
| B16 | 1.14 |
| B17 | 1.25 |

molecular target: T12, human FcγRIA α subunit extracellular domain-His6-GST fusion (human, UniProt P12314 16-292); assay: FcγRI ELISA and THP-1 cells, averaged
T12 construct: extracellular domain; also called GST-FcγRIA; CD64; not shown: glutathione S transferase (GST)
T12 sequence (P12314 other isoform, or with tags, fused parts or gaps): as the sequence (P12314 other isoform, or with tags, fused parts or gaps, form in doubt) above

| Binder | ratio to native IgG1 |
| --- | --- |
| B9 | 1.11 ratio |
| B10 | 1.03 ratio |

molecular target: T7, human FcγRIIB α subunit extracellular …; assay: ELISA, IgG:IgE hexamers on receptor-GST

| Binder | ratio to native IgG1 |
| --- | --- |
| B14 | 1.23 |
| B15 | 1.07 |
| B16 | 1.2 |
| B17 | 1.15 |

molecular target: T8, human FcγRIIA-R131 α subunit …; assay: ELISA, IgG:IgE hexamers on receptor-GST

| Binder | ratio to native IgG1 |
| --- | --- |
| B14 | 1.11 |
| B15 | 1.09 |
| B16 | 1.1 |
| B17 | 1.05 |

molecular target: T13, human FcγRIIIA-F158 α subunit extracellular domain-6His-GST fusion (human, UniProt P08637 17-208); assay: ELISA, IgG:IgE hexamers on receptor-GST
T13 construct: also called FcγRIIIA-Phe158; not shown: glutathione S-transferase (GST)
T13 sequence (P08637 other isoform, or with tags, fused parts or gaps, form in doubt): as the sequence (P08637 other isoform, or with tags, fused parts or gaps) above

| Binder | ratio to native IgG1 |
| --- | --- |
| B14 | 1.42 |
| B15 | 1.26 |
| B16 | 1.3 |
| B17 | 1.08 |

molecular target: T14, human neonatal Fc receptor (FcRn), biotinylated (human, UniProt P55899 24-297; P61769 21-119, biotinylated (biotin-X-NHS)); assay: FcRn ELISA, pH 6.0;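 note: Streptavidin-captured FcRn plates, IgG variants titrated 2 h at pH 6.0, peroxidase anti-human IgG read at 450 nm, variant over standard concentration at the standard curve mid-point absorbance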
T14 construct: captured on streptavidin plates
T14 sequence (P55899 24-297 limits assumed, chain 1 of 2): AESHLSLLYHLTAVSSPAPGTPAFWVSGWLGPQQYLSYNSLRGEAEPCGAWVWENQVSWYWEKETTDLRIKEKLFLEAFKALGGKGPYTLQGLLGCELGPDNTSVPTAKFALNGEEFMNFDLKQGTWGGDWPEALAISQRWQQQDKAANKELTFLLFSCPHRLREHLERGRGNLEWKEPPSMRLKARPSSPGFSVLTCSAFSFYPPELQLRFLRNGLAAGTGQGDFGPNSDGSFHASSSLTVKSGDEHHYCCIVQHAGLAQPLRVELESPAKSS
T14 sequence (P61769 21-119 limits assumed, chain 2 of 2): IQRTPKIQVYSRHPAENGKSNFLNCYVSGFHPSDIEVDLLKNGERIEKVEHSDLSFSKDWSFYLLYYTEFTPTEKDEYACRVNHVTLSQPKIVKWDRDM
Experimental: FcRn Binding ELISA: For measuring FcRn binding activity of IgG variants, ELISA plates were coated with 2 µg/ml streptavidin (Zymed, South San Francisco) in 50 mM carbonate buffer, pH 9.6, at 4° C. overnight and blocked with PBS-0.5% BSA, pH 7.2 at room temperature for one hour. Biotinylated FcRn (prepared using biotin-X-NHS from Research Organics, Cleveland, Ohio and used at 1–2 µg/ml) in PBS-0.5% BSA, 0.05% polysorbate 20, pH 7.2, was added to the plate and incubated for one hour. Two fold serial dilutions of IgG standard (1.6–100 ng/ml) or variants in PBS-0.5% BSA, 0.05% polysorbate 20, pH 6.0, were added to the plate and incubated for two hours. Bound IgG was detected using peroxidase labeled goat F(ab')_2 anti-human IgG F(ab')_2 in the above pH 6.0 buffer (Jackson ImmunoResearch, West Grove, Pa.) followed by 3,3',5,5'-tetramethyl benzidine (Kirgaard & Perry Laboratories) as the substrate. Plates were washed between steps with PBS-0.05% TWEEN 20® at either pH 7.2 or 6.0. Absorbance was read at 450 nm on a Vmax plate reader (Molecular Devices, Menlo Park, Calif.). Titration curves were fit with a four-parameter nonlinear regression curve-fitting program (KaleidaGraph, Synergy software, Reading, Pa.). Concentrations of IgG variants corresponding to the mid-point absorbance of the titration curve of the standard were calculated and then divided by the concentration of the standard corresponding to the mid-point absorbance of the standard titration curve.

| Binder | ratio to native IgG1 |
| --- | --- |
| B9 | 0.85 ratio |
| B10 | 0.79 ratio |

molecular target: T6, human FcγRIIA-R131 α subunit …; assay: ELISA, IgG:IgE hexamer on coated FcγRIIA-R131-GST; separate assays run together with the H131 assays

| Binder | ratio of binding of the variant to that of native IgG1 |
| --- | --- |
| B1 | 1.53 ratio (variant/native IgG1) |
| B2 | 1.3 ratio (variant/native IgG1) |
| B3 | 1 ratio (variant/native IgG1) |
| B4 | 1.57 ratio (variant/native IgG1) |
| B5 | 1.11 ratio (variant/native IgG1) |
| B6 | 1.28 ratio (variant/native IgG1) |
| B8 | 1.1 ratio (variant/native IgG1) |
